Assays:
AREG [1] = experiment: ELISA of AREG in conditioned medium of transfected 293T cells (in vitro cleavage assay); type: cell-based, human; settings: 293T cells, co-expression with AREG, absence of MM
Excerpt: To test whether Rhbdf2^cub, with its short N-terminal domain, could induce secretion of AREG independently of metalloprotease activity, we performed in vitro cleavage assays in the presence or absence of marimastat (MM), a potent broad-spectrum metalloprotease inhibitor that can block both ADAM17- and ADAM10-dependent shedding of substrates. Because of the significant homology between the mouse and human RHBDF2 genes we transfected 293T cells with human AREG either alone or with the human wildtype (HuWt) or human Cub (HuCub) RHBDF2 genes (FIG. 5A), and measured AREG levels in conditioned medium. In the absence of MM, we observed no difference in AREG levels between AREG-expressing and AREG/HuCub co-expressing cells, whereas co-expression of HuWt and AREG reduced AREG levels by ˜60% (FIG. 5B).
Human AREG, HB-EGF and EGF ELISA: Transient transfections were performed in 293T cells seeded in 24-well plates. Using lipofectamine LTX with Plus reagent 16.5 fmol of HuWt or HuCub was co-transfected with 25 ng of AREG or 50 ng of HB-EGF or 200 ng of EGF. The total amount of transfected DNA was made up to equal amount per well with pCMV6-AC-HA vector. After 24 h, DMSO or 10 μM MM in 1 ml of fresh medium replaced the old medium. After 24 h, 100 μl of supernatant was either undiluted (HB-EGF and EGF) or diluted five-fold (AREG) and subjected to ELISA as per the manufacturer's instructions (DY262, DY259, and DY236).

iRhom2 [2] = experiment: Cyclohexamide chase with flow cytometry of Flag-tagged iRhom2 protein in COS7 cells; type: cell-based; settings: 150 μg/ml cyclohexamide chase, within one hour
Procedure: (§1) Flow cytometry—293T and COS7 cells plated in 6 well plates were transiently transfected with 600 ng of HuWt or HuCub or HuWt p.I186T cDNAs using Lipofectamine™ LTX reagent. After 40 h, cells were incubated in 150 μg/ml of cyclohexamide for 0, 0.5, 1, 2 and 4 h. Following that, cells were fixed in 150 μls of freshly prepared cold 4% PFA at RT for 40 min. Cells were washed once with 2 ml PBST and resuspended in 150 μls of PBST for 15 min at RT in the dark. After another wash, cells were resuspended in 125 μls of PBST containing phycoerythrin-labeled anti-DDK primary antibody (1:50) on ice for 30 min. After a final wash, cells were resuspended in FACS buffer and subjected to flow cytometry analysis (BD FACSCalibur).
Statistical analysis—GraphPad Prism v4 (GraphPad Software, San Diego, Calif.) was used to generate Kaplan-Meier survival curves and calculate protein half-life (One phase exponential decay equation). One-way ANOVA and t-tests determined statistical differences. P value less than 0.05 was considered statistically significant.

AREG [3] = experiment: Co-immunoprecipitation of iRhom2-AREG complex; type: binding, human; settings: COS7 cell lysates, anti-Flag immunoprecipitation
Procedure: Immunoprecipitation: 293T and COS7 cell transfections were carried according to the manufacturer's instructions (Life technologies). Cells plated in 6 well plates were treated with 400 μls of Cell Lysis Buffer (Cell Signaling, Danvers, Mass.) containing complete mini protease inhibitors (Roche Applied Science, Indianapolis, Ind.), incubated on ice for 10 min and centrifuged at 14,000 g for 10 min in a cold room. Cell supernatant was incubated overnight with 20 μls of magnetic beads conjugated with Anti-DDK antibody (Origene) in a cold room on a rocking platform. Following overnight incubation, beads/slurry was washed with three times with TBS-T, and protein was collected using 2×SDS-PAGE loading buffer.

iRhom2 [4] = experiment: Flow cytometry of protein expression of Flag-tagged constructs in 293T and COS7 cells; type: cell-based, human; settings: 48 h post transfection
Procedure: as §1, with “After 40 h, cells were incubated in 150 μg/ml of cyclohexamide for 0, 0.5, 1, 2 and 4 h.” left out

B1: HuWt: full-length wildtype human RHBDF2 cDNA (iRhom2) in a C-terminal Flag-tagged expression vector (protein)
chain: MASADKNGGSVSSVSSSRLQSRKPPNLSITIPPPEKETQAPGEQDSMLPEGFQNRRLKKSQPRTWAAHTTACPPSFLPKRKNPAYLKSVSLQEPRSRWQESSEKRPGFRRQASLSQSIRKGAAQWFGVSGDWEGQRQQWQRRSLHHCSMRYGRLKASCQRDLELPSQEAPSFQGTESPKPCKMPKIVDPLARGRAFRHPEEMDRPHAPHPPLTPGVLSLTSFTSVRSGYSHLPRRKRMSVAHMSLQAAAALLKGRSVLDATGQRCRVVKRSFAFPSFLEEDVVDGADTFDSSFFSKEEMSSMPDDVFESPPLSASYFRGIPHSASPVSPDGVQIPLKEYGRAPVPGPRRGKRIASKVKHFAFDRKKRHYGLGVVGNWLNRSYRRSISSTVQRQLESFDSHRPYFTYWLTFVHVIITLLVICTYGIAPVGFAQHVTTQLVLRNKGVYESVKYIQQENFWVGPSSIDLIHLGAKFSPCIRKDGQIEQLVLRERDLERDSGCCVQNDHSGCIQTQRKDCSETLATFVKWQDDTGPPMDKSDLGQKRTSGAVCHQDPRTCEEPASSGAHIWPDDITKWPICTEQARSNHTGFLHMDCEIKGRPCCIGTKGSCEITTREYCEFMHGYFHEEATLCSQVHCLDKVCGLLPFLNPEVPDQFYRLWLSLFLHAGVVHCLVSVVFQMTILRDLEKLAGWHRIAIIFILSGITGNLASAIFLPYRAEVGPAGSQFGLLACLFVELFQSWPLLERPWKAFLNLSAIVLFLFICGLLPWIDNIAHIFGFLSGLLLAFAFLPYITFGTSDKYRKRALILVSLLAFAGLFAALVLWLYIYPINWPWIEHLTCFPFTSRFCEKYELDQVLH
modifications: left off: small tags and cut ends
notes: full-length wildtype human RHBDF2 cDNA (iRhom2) in a C-terminal Flag-tagged expression vector
AREG [1]
  reduction of AREG levels in conditioned medium: ~60%
iRhom2 [2]
  reduction in immunoreactivity compared with HuCub or p.I186T: approximately 50%
AREG [3]
  physical complex with AREG: forms physical complexes with AREG
iRhom2 [4]
  protein expression level compared to HuCub and p.I186T: significantly lower

Source: patent publication US20170241986A1, “METHODS FOR IDENTIFYING COMPOUNDS THAT ALTER THE ACTIVITY OF IRHOM POLYPEPTIDES AND USE THEREOF” (The Jackson Laboratory, priority 2014, published 2017)
